Reference: publication PMC12215978, “CryoEM structure of the SLFN14 endoribonuclease reveals insight into RNA binding and cleavage” (Nature Communications, 2025)
Values joined by “and” are separate entries in the source; they are usually repeats but may differ in a detail not shown here. Identical values can stand only once. Values belong to the molecule of their own block, whether it stands above or below them.

Experiments:
[1] = molecular target: isolated SLFN14 CTD (SLFN14^CTD) (human); test: SEC; Superdex-200 Increase 3.2/300, 5–10 μM protein, storage buffer (20 mM Tris pH 7.4, 150 mM NaCl, 5 mM MgCl2, 1 mM TCEP), calibrated with gel filtration standards
[2] = molecular target: SLFN14^ΔCTD, SLFN14 C-terminal truncation that lacks the CTD (human); test: as above
[3] = molecular target: the molecule itself; test: mass photometry; purified SLFN14 in solution; also exposed to high salt conditions; methods not shown

stoichiometry N [1]: 2
Molecule: isolated SLFN14 CTD (SLFN14^CTD) (domain or fragment)

stoichiometry N [2]: 2
Molecule: SLFN14^ΔCTD, SLFN14 C-terminal truncation that lacks the CTD (domain or fragment)

B1: full-length recombinant human SLFN14 (residues 1–912), C-terminally Flag-tagged (enzyme, UniProt P0C7P3 1-912, looked up)
chain: MESLKTDTEMPYPEVIVDVGRVIFGEENRKKMTNSCLKRSENSRIIRAICALLNSGGGVIKAEIDDKTYSYQCHGLGQDLETSFQKLLPSGSQKYLDYMQQGHNLLIFVKSWSPDVFSLPLRICSLRSNLYRRDVTSAINLSASSALELLREKGFRAQRGRPRVKKLHPQQVLNRCIQEEEDMRILASEFFKKDKLMYKEKLNFTESTHVEFKRFTTKKVIPRIKEMLPHYVSAFANTQGGYVLIGVDDKSKEVVGCKWEKVNPDLLKKEIENCIEKLPTFHFCCEKPKVNFTTKILNVYQKDVLDGYVCVIQVEPFCCVVFAEAPDSWIMKDNSVTRLTAEQWVVMMLDTQSAPPSLVTDYNSCLISSASSARKSPGYPIKVHKFKEALQRHLFPVTQEEVQFKPESLCKKLFSDHKELEGLMKTLIHPCSQGIVIFSRSWAGDVGFRKEQNVLCDALLIAVNSPVVLYTILIDPNWPGGLEYARNTAHQLKQKLQTVGGYTGKVCIIPRLIHLSSTQSRPGEIPLRYPRSYRLADEEEMEDLLQALVVVSLSSRSLLSDQMGCEFFNLLIMEQSQLLSESLQKTRELFIYCFPGVRKTALAIKIMEKIKDLFHCKPKEILYVCESDSLKDFVTQQTTCQAVTRKTFMQGEFLKIKHIVMDETENFCSKYGNWYMKAKNITHPKAKGTGSENLHHGILWLFLDPFQIHHADVNGLPPPSAQFPRKTITSGIHCALEIAKVMKEEMKRIKENPPSNMSPDTLALFSETAYEEATCAQALPGVCETKTNLTTEQIANYVARKCHSLFQCGYLPKDIAILCRRGEDRGRYRLALLKAMELIETHRPSEVVFSPATGVWGSHIVLDSIQQFSGLERTVVFGLSPECDQSEEFHKLCFASRAIKHLYLLYEKRAAY
notes: human SLFN14, full length, residues 1-912; The sample keeps co-purified cellular nucleic acid, and the structure has RNA in the cleft; also called SLFN14 wild-type (WT); Schlafen 14; not shown: Flag, C-terminal, kept
stoichiometry N [3]: 2 and 4
